According to patent US20240226039A1, “IMMUNE CHECKPOINT INHIBITOR AND HDAC INHIBITOR COMBINATION THERAPY STRATEGY” (H. Lee Moffitt Cancer Center and Research Institute, Inc., priority 2021, published 2024):

Key:
[1] = design: species or system human; settings: in vivo
Protocol: (§1) Key inclusion criteria: Histologically confirmed mNSCLCm Treatment naïve, and PD-L1 expression≥1% are eligible. Key exclusion criteria: Untreated, progressive, or symptomatic brain metastases, Active uncontrolled autoimmune disorders, and Systemic steroid use equivalent to >10 mg prednisone. […] The primary endpoint was overall response rate (ORR). Additional endpoints included correlative analyses, DOR, PFS and OS. The trial used a Simon Mini-Max two-stage design with interim analysis planned after the first stage when 23 patients were enrolled in each arm.

[2] = test system: metastatic NSCLC (mNSCLC); experiment: Phase II randomized trial, best response / ORR; format: in vivo, human
Protocol: as §1, with “Key” for “Key inclusion criteria: Histologically confirmed mNSCLCm Treatment naïve, and PD-L1 expression≥1% are eligible. Key”

CD8+ T cells = experiment: IHC of CD8+ TIL in pre- and on-treatment core biopsies; format: in vivo, human; settings: biopsy cycle 1 days 15-21; p=0.001 Arm A, p=0.002 Arm B
Protocol: IHC was performed to determine presence of CD8+ T cells and CD33+ myeloid cells. Biopsies were scored using a 0-3 scale separately in the tumor stroma and tumor beds.

pembrolizumab [Arm A]
6 (25%): Best Response: Partial Response ([2]; patients n (%), first-line mNSCLC, p = 0.026 between arms)
1 (4%): ALT increased Gr 3 [1] | ALT increased Total [1] | AST increased Gr 3 [1] | AST increased Total [1] | Anorexia Gr 1 [1] | Anorexia Total [1] | Chest pain - cardiac Gr 3 [1] | Chest pain - cardiac Total [1] | Diarrhea Gr 2 [1] | Fatigue Gr 1 [1] | Fatigue Gr 2 [1] | Hyponatremia Gr 3 [1] | Hyponatremia Total [1] | Hypothyroidism Gr 2 [1] | Hypothyroidism Total [1] | Pneumonitis Gr 3 [1] | Pneumonitis Total [1] | Rash maculo-papular Gr 3 [1] | Rash maculo-papular Total [1] | irAE Adrenal insufficiency Gr 2 [1] | irAE Adrenal insufficiency Total [1] | irAE Colitis Gr 2 [1] | irAE Colitis Total [1] | irAE Hepatitis Gr 3 [1] | irAE Hepatitis Total [1] | irAE Pneumonitis Gr 3 [1] | irAE Pneumonitis Total [1] | irAE Rash/pruritis/dry skin Gr 3 [1]
3 (13%): Diarrhea Total [1]
2 patients: treatment discontinued due to toxicity, number of patients [1]
6: Total AEs Gr 2 [1] | Total AEs Gr 3 [1]
14 (58%): Disease Control Rate ([2]; patients n (%), first-line mNSCLC, p = 0.024 between arms)
5 (21%): irAE Rash/pruritis/dry skin Total [1]
9: Total irAEs Total [1]
20: Total AEs Total [1]
4 (17%): irAE Rash/pruritis/dry skin Gr 1 [1]
25%: PRs, interim analysis ([2]; immunotherapy naive patients, p=0.026)
33.3%: ORR in pts with low pre-treatment tumor bed TIL (score=1) ([2]; in vivo)
0: ALT increased Gr 1 [1] | ALT increased Gr 2 [1] | ALT increased Gr 4 [1] | AST increased Gr 1 [1] | AST increased Gr 2 [1] | AST increased Gr 4 [1] | Alkaline phosphatase increased Gr 1 [1] | Alkaline phosphatase increased Gr 2 [1] | Alkaline phosphatase increased Gr 3 [1] | Alkaline phosphatase increased Gr 4 [1] | Alkaline phosphatase increased Total [1] | Alopecia Gr 1 [1] | Alopecia Gr 2 [1] | Alopecia Gr 3 [1] | Alopecia Gr 4 [1] | Alopecia Total [1] | Anemia Gr 1 [1] | Anemia Gr 2 [1] | Anemia Gr 3 [1] | Anemia Gr 4 [1] | Anemia Total [1] | Anorexia Gr 2 [1] | Anorexia Gr 3 [1] | Anorexia Gr 4 [1] | Arthralgia Gr 1 [1] | Arthralgia Gr 2 [1] | Arthralgia Gr 3 [1] | Arthralgia Gr 4 [1] | Arthralgia Total [1] | Chest pain - cardiac Gr 1 [1] | Chest pain - cardiac Gr 2 [1] | Chest pain - cardiac Gr 4 [1] | Creatinine increased Gr 1 [1] | Creatinine increased Gr 2 [1] | Creatinine increased Gr 3 [1] | Creatinine increased Gr 4 [1] | Creatinine increased Total [1] | Diarrhea Gr 3 [1] | Diarrhea Gr 4 [1] | Dysgeusia Gr 1 [1] | Dysgeusia Gr 2 [1] | Dysgeusia Gr 3 [1] | Dysgeusia Gr 4 [1] | Dysgeusia Total [1] | Fatigue Gr 3 [1] | Fatigue Gr 4 [1] | Heart failure Gr 1 [1] | Heart failure Gr 2 [1] | Heart failure Gr 3 [1] | Heart failure Gr 4 [1] | Heart failure Total [1] | Hyponatremia Gr 1 [1] | Hyponatremia Gr 2 [1] | Hyponatremia Gr 4 [1] | Hypothyroidism Gr 1 [1] | Hypothyroidism Gr 3 [1] | Hypothyroidism Gr 4 [1] | Nausea Gr 1 [1] | Nausea Gr 2 [1] | Nausea Gr 3 [1] | Nausea Gr 4 [1] | Nausea Total [1] | Pain Gr 1 [1] | Pain Gr 2 [1] | Pain Gr 3 [1] | Pain Gr 4 [1] | Pain Total [1] | Pericardial effusion/ tamponade Gr 1 [1] | Pericardial effusion/ tamponade Gr 2 [1] | Pericardial effusion/ tamponade Gr 3 [1] | Pericardial effusion/ tamponade Gr 4 [1] | Pericardial effusion/ tamponade Total [1] | Platelet count decreased Gr 1 [1] | Platelet count decreased Gr 2 [1] | Platelet count decreased Gr 3 [1] | Platelet count decreased Gr 4 [1] | Platelet count decreased Total [1] | Pneumonitis Gr 1 [1] | Pneumonitis Gr 2 [1] | Pneumonitis Gr 4 [1] | Pruritis Gr 2 [1] | Pruritis Gr 3 [1] | Pruritis Gr 4 [1] | QT prolongation Gr 1 [1] | QT prolongation Gr 2 [1] | QT prolongation Gr 3 [1] | QT prolongation Gr 4 [1] | QT prolongation Total [1] | Rash maculo-papular Gr 1 [1] | Rash maculo-papular Gr 2 [1] | Rash maculo-papular Gr 4 [1] | Thromboembolic event Gr 1 [1] | Thromboembolic event Gr 2 [1] | Thromboembolic event Gr 3 [1] | Thromboembolic event Gr 4 [1] | Thromboembolic event Total [1] | Total AEs Gr 4 [1] | Total irAEs Gr 4 [1] | Vomiting Gr 1 [1] | Vomiting Gr 2 [1] | Vomiting Gr 3 [1] | Vomiting Gr 4 [1] | Vomiting Total [1] | irAE AST increased Gr 1 [1] | irAE AST increased Gr 2 [1] | irAE AST increased Gr 3 [1] | irAE AST increased Gr 4 [1] | irAE AST increased Total [1] | irAE Adrenal insufficiency Gr 1 [1] | irAE Adrenal insufficiency Gr 3 [1] | irAE Adrenal insufficiency Gr 4 [1] | irAE Arthralgia Gr 1 [1] | irAE Arthralgia Gr 2 [1] | irAE Arthralgia Gr 3 [1] | irAE Arthralgia Gr 4 [1] | irAE Arthralgia Total [1] | irAE Brachial plexopathy Gr 1 [1] | irAE Brachial plexopathy Gr 2 [1] | irAE Brachial plexopathy Gr 3 [1] | irAE Brachial plexopathy Gr 4 [1] | irAE Brachial plexopathy Total [1] | irAE Colitis Gr 1 [1] | irAE Colitis Gr 3 [1] | irAE Colitis Gr 4 [1] | irAE Hepatitis Gr 1 [1] | irAE Hepatitis Gr 2 [1] | irAE Hepatitis Gr 4 [1] | irAE Hypothyroidism Gr 1 [1] | irAE Hypothyroidism Gr 2 [1] | irAE Hypothyroidism Gr 3 [1] | irAE Hypothyroidism Gr 4 [1] | irAE Hypothyroidism Total [1] | irAE Pancreatic atrophy Gr 1 [1] | irAE Pancreatic atrophy Gr 2 [1] | irAE Pancreatic atrophy Gr 3 [1] | irAE Pancreatic atrophy Gr 4 [1] | irAE Pancreatic atrophy Total [1] | irAE Pericardial effusion Gr 1 [1] | irAE Pericardial effusion Gr 2 [1] | irAE Pericardial effusion Gr 3 [1] | irAE Pericardial effusion Gr 4 [1] | irAE Pericardial effusion Total [1] | irAE Pneumonitis Gr 1 [1] | irAE Pneumonitis Gr 2 [1] | irAE Pneumonitis Gr 4 [1] | irAE Rash/pruritis/dry skin Gr 2 [1] | irAE Rash/pruritis/dry skin Gr 4 [1]
2: Total irAEs Gr 2 [1]
2 (8%): Fatigue Total [1]
10 (42%): Best Response: Progressive Disease ([2]; patients n (%), first-line mNSCLC)
3: Total irAEs Gr 3 [1]
significant increase: change from pre-treatment to on-treatment CD8+ TIL scores (CD8+ T cells)
8%: treatment discontinued due to toxicity, share of patients [1]
8: Total AEs Gr 1 [1]
4: Total irAEs Gr 1 [1]
58%: disease control rate, interim analysis ([2]; immunotherapy naive patients, p=0.024)
